Sequences and labels used below:
B1: 138 (antibody, V domains shown)
VH: QIQLVQSGSELKKPGASVKVSCKASGYTFTDYSMHWVRQAPGQGLKWMGWINTETGEPTYAQGFTGRFVFSLDTSVSTAYLQISSLKAEDTAVYYCARIPLYYYGSRYWYFDVWGQGTTVTVSS
VL: DIQMTQSPSSLSASVGDRVTITCRASENIYRNLAWYQQKPGKAPKLLVYAATNLADGVPSRFSGSGSGTDYTLTISSLQPEDFATYYCQHFWGTPWTFGQGTKVEIK
modifications: synthetic humanized antibody heavy chain variable region sequence; synthetic humanized antibody light chain variable region sequence
B2: 145 (antibody, V domains shown)
VH: B1 VH with I2V, Q62D, G63D, T65K
VL: B1 VL with V48L, P80S
modifications: synthetic humanized antibody heavy chain variable region sequence; synthetic humanized antibody light chain variable region sequence
B3: 141 (antibody, V domains shown)
VH: B1 VH with I2V, K46E, Q62D, G63D, T65K
VL: B1 VL
modifications: synthetic humanized antibody heavy chain variable region sequence; synthetic humanized antibody light chain variable region sequence
B4: 143 (antibody, V domains shown)
VH: B1 VH with Q62D, G63D, T65K
VL: B1 VL
modifications: synthetic humanized antibody heavy chain variable region sequence; synthetic humanized antibody light chain variable region sequence
B5: 152 (antibody, V domains shown)
VH: B1 VH with I2V, K46E
VL: B1 VL with V48L, P80S
modifications: synthetic humanized antibody heavy chain variable region sequence; synthetic humanized antibody light chain variable region sequence
B6: 151 (antibody, V domains shown)
VH: B1 VH
VL: B1 VL with V48L, P80S
modifications: synthetic humanized antibody heavy chain variable region sequence; synthetic humanized antibody light chain variable region sequence
B7: 155 (antibody, V domains shown)
VH: B1 VH with Q62D, G63D, T65K
VL: B1 VL with V48L, P80S
modifications: synthetic humanized antibody heavy chain variable region sequence; synthetic humanized antibody light chain variable region sequence
B8: 157 (antibody, V domains shown)
VH: B1 VH with I2V, K46E
VL: B1 VL with K45Q, V48L
modifications: synthetic humanized antibody heavy chain variable region sequence; synthetic humanized antibody light chain variable region sequence
B9: 142 (antibody, V domains shown)
VH: B1 VH with I2V, Q62D, G63D, T65K
VL: B1 VL
modifications: synthetic humanized antibody heavy chain variable region sequence; synthetic humanized antibody light chain variable region sequence
B10: 153 (antibody, V domains shown)
VH: B1 VH with I2V
VL: B1 VL with V48L, P80S
modifications: synthetic humanized antibody heavy chain variable region sequence; synthetic humanized antibody light chain variable region sequence
B11: 154 (antibody, V domains shown)
VH: B1 VH with I2V, K46E, Q62D, G63D, T65K
VL: B1 VL with V48L, P80S
modifications: synthetic humanized antibody heavy chain variable region sequence; synthetic humanized antibody light chain variable region sequence

Numbering of substitutions follows the chain as printed.

The target in the first test is T1, human EphA1 (Homo sapiens, UniProt P21709).
T1 construct: a protein of the extracellular region of each human Eph receptor fused with the SEAP protein and the His tag; made in house; host or cells: Expi293F cells (culture supernatant)
T1 sequence (P21709 26-547 limits assumed): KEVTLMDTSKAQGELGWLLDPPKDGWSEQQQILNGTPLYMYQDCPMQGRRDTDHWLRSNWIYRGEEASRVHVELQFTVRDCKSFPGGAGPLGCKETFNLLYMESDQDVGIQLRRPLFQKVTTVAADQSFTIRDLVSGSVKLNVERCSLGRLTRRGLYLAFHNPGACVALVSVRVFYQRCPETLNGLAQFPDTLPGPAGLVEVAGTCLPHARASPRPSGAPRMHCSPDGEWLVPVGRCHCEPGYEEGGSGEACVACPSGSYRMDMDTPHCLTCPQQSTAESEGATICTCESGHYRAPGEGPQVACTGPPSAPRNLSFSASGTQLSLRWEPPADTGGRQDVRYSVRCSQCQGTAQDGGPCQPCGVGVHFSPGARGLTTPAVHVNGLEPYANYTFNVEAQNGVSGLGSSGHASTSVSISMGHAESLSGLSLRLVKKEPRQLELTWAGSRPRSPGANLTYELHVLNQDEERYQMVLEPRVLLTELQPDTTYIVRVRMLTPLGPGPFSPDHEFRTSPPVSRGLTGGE
In words: Selectivity ELISA of humanized antibodies for human Eph receptor. The test is classed as binding. Conditions: coated protein 1 nM. A digest of the protocol:
(§1)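 Read-out is A450 after TMB development stopped with 1N H2SO4. Plates bore anti-His-captured human Eph extracellular region-SEAP-His proteins at 1 nM final, made in Expi293F cells. Humanized antibody binding ran 1 h at room temperature before HRP-labeled anti-IgG detection.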
As to B1, the “hEphA1-SEAP-: absorbance at 450 nm, percentage with respect to hEphA4-SEAP-His as 100%” value came to 5.2%.

Take B2: the “hEphA1-SEAP-: absorbance at 450 nm, percentage with respect to hEphA4-SEAP-His as 100%” value was 6.7%.

On to B3, for which the “hEphA1-SEAP-: absorbance at 450 nm, percentage with respect to hEphA4-SEAP-His as 100%” value came to 5.3%.

Turning to B4, the “hEphA1-SEAP-: absorbance at 450 nm, percentage with respect to hEphA4-SEAP-His as 100%” value amounted to 6.0%.

With B5, the “hEphA1-SEAP-: absorbance at 450 nm, percentage with respect to hEphA4-SEAP-His as 100%” value is 5.8%.

Regarding B6, the “hEphA1-SEAP-: absorbance at 450 nm, percentage with respect to hEphA4-SEAP-His as 100%” value is listed as 7.1%.

Consider B7, for which the “hEphA1-SEAP-: absorbance at 450 nm, percentage with respect to hEphA4-SEAP-His as 100%” value came to 5.5%.

On to B8, for which the “hEphA1-SEAP-: absorbance at 450 nm, percentage with respect to hEphA4-SEAP-His as 100%” value worked out at 6.2%.

In the case of B9, the “hEphA1-SEAP-: absorbance at 450 nm, percentage with respect to hEphA4-SEAP-His as 100%” value is 5.6%.

As to B10, the “hEphA1-SEAP-: absorbance at 450 nm, percentage with respect to hEphA4-SEAP-His as 100%” value stood at 6.3%.

B11: the “hEphA1-SEAP-: absorbance at 450 nm, percentage with respect to hEphA4-SEAP-His as 100%” value was 6.4%.

The target in the next test is T2, human EphA10 (Homo sapiens, UniProt Q5JZY3).
T2 construct: a protein of the extracellular region of each human Eph receptor fused with the SEAP protein and the His tag; made in house; host or cells: Expi293F cells (culture supernatant)
T2 sequence (Q5JZY3 34-565 limits assumed): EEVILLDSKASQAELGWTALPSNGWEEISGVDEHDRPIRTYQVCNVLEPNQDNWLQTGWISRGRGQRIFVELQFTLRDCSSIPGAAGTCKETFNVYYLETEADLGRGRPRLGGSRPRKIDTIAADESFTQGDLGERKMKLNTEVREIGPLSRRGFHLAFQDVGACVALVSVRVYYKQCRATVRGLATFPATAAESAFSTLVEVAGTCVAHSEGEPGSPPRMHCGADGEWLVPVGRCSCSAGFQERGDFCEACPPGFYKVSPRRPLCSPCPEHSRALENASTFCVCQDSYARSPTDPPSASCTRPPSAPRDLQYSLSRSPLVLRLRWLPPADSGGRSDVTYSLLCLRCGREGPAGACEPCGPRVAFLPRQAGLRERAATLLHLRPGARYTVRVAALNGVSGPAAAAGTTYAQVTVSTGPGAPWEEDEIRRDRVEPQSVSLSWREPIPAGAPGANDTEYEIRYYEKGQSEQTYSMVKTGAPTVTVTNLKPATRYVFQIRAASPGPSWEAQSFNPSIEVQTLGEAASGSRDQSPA
The description is as above. Type of test: binding. Conditions: coated protein 1 nM. The procedure, abridged:
as §1
On to B1, for which the “hEphA10-SEAP-: absorbance at 450 nm, percentage with respect to hEphA4-SEAP-His as 100%” value is 5.0%.

As for B2, the “hEphA10-SEAP-: absorbance at 450 nm, percentage with respect to hEphA4-SEAP-His as 100%” value was determined as 6.5%.

Take B3: the “hEphA10-SEAP-: absorbance at 450 nm, percentage with respect to hEphA4-SEAP-His as 100%” value came out at 5.2%.

In the case of B4, the “hEphA10-SEAP-: absorbance at 450 nm, percentage with respect to hEphA4-SEAP-His as 100%” value came to 5.2%.

As for B5, the “hEphA10-SEAP-: absorbance at 450 nm, percentage with respect to hEphA4-SEAP-His as 100%” value is reported as 5.8%.

As to B6, the “hEphA10-SEAP-: absorbance at 450 nm, percentage with respect to hEphA4-SEAP-His as 100%” value is reported as 6.6%.

Take B7: the “hEphA10-SEAP-: absorbance at 450 nm, percentage with respect to hEphA4-SEAP-His as 100%” value worked out at 5.4%.

Turning to B8, the “hEphA10-SEAP-: absorbance at 450 nm, percentage with respect to hEphA4-SEAP-His as 100%” value turned out to be 6.1%.

With B9, the “hEphA10-SEAP-: absorbance at 450 nm, percentage with respect to hEphA4-SEAP-His as 100%” value stood at 5.4%.

On to B10, for which the “hEphA10-SEAP-: absorbance at 450 nm, percentage with respect to hEphA4-SEAP-His as 100%” value was found to be 6.0%.

In the case of B11, the “hEphA10-SEAP-: absorbance at 450 nm, percentage with respect to hEphA4-SEAP-His as 100%” value was found to be 5.9%.

The target in a further test is T3, human EphA6 (Homo sapiens, UniProt Q9UF33).
T3 construct: a protein of the extracellular region of each human Eph receptor fused with the SEAP protein and the His tag; made in house; host or cells: Expi293F cells (culture supernatant)
T3 sequence (Q9UF33 23-550 limits assumed): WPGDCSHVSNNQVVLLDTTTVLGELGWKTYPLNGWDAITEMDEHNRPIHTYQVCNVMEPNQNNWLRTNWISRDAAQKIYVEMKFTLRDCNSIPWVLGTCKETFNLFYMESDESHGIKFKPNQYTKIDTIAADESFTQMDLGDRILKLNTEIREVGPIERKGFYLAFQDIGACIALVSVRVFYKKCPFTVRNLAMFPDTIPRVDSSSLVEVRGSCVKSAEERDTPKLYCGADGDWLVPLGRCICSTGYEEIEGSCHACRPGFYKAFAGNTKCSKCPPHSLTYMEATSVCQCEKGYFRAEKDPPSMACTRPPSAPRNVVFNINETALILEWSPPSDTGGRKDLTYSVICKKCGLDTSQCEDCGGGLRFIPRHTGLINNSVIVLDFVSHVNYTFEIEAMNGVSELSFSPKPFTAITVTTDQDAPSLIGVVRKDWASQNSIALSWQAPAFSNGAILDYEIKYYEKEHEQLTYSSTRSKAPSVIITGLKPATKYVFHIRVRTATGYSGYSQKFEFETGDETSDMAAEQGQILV
The description is as above. The test is classed as binding. Conditions: coated protein 1 nM. The procedure, abridged: as §1
Turning to B1, the “hEphA6-SEAP-: absorbance at 450 nm, percentage with respect to hEphA4-SEAP-His as 100%” value was 10.2%.

Turning to B2, the “hEphA6-SEAP-: absorbance at 450 nm, percentage with respect to hEphA4-SEAP-His as 100%” value was determined as 8.6%.

Take B3: the “hEphA6-SEAP-: absorbance at 450 nm, percentage with respect to hEphA4-SEAP-His as 100%” value is 9.0%.

As to B4, the “hEphA6-SEAP-: absorbance at 450 nm, percentage with respect to hEphA4-SEAP-His as 100%” value amounted to 9.9%.

Regarding B5, the “hEphA6-SEAP-: absorbance at 450 nm, percentage with respect to hEphA4-SEAP-His as 100%” value was 8.3%.

For the molecule B6, the “hEphA6-SEAP-: absorbance at 450 nm, percentage with respect to hEphA4-SEAP-His as 100%” value is 9.9%.

On to B7, for which the “hEphA6-SEAP-: absorbance at 450 nm, percentage with respect to hEphA4-SEAP-His as 100%” value is recorded as 7.2%.

On to B8, for which the “hEphA6-SEAP-: absorbance at 450 nm, percentage with respect to hEphA4-SEAP-His as 100%” value was determined as 9.0%.

Regarding B9, the “hEphA6-SEAP-: absorbance at 450 nm, percentage with respect to hEphA4-SEAP-His as 100%” value turned out to be 9.7%.

Turning to B10, the “hEphA6-SEAP-: absorbance at 450 nm, percentage with respect to hEphA4-SEAP-His as 100%” value was determined as 8.7%.

Regarding B11, the “hEphA6-SEAP-: absorbance at 450 nm, percentage with respect to hEphA4-SEAP-His as 100%” value is reported as 8.4%.

The values above are taken from patent publication US10428140B2, “Anti-EphA4 antibody” (EISAI R&D MANAGEMENT CO., LTD., priority 2015, dated 2019).
